Measured values from US20190092852A1.
Read-outs that look alike come from different tables or passages of the source.

T1: human IL-33 (R&D Systems, #3625-IL-010/CF) (human) (UniProt O95760)
T1 sequence (looked up): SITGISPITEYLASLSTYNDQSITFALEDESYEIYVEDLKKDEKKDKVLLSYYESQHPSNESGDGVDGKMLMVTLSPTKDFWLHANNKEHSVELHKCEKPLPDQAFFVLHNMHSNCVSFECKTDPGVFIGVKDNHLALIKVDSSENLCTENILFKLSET

T2: biotinylated human IL-33 (human) (UniProt O95760)
T2 sequence (biotin-labeled with EZ-LINK NHS-PEG4-Biotin, looked up): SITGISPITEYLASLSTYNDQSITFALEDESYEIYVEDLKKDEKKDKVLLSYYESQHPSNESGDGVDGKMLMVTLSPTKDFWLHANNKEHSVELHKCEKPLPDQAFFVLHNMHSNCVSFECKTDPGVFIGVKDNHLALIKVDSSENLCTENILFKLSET


How the values were obtained:
[1] = molecular target: T1, human IL-33 (R&D Systems, #3625-IL-010/CF) (human)
[2] = molecular target: T1, human IL-33 (R&D Systems, #3625-IL-010/CF) (human); remark: listed apart in the source
[3] = molecular target: T1, human IL-33 (R&D Systems, #3625-IL-010/CF) (human); remark: listed apart in the source
[4] = molecular target: T1, human IL-33 (R&D Systems, #3625-IL-010/CF) (human); remark: listed apart in the source
[5] = molecular target: T1, human IL-33 (R&D Systems, #3625-IL-010/CF) (human); remark: listed apart in the source
[6] = molecular target: T1, human IL-33 (R&D Systems, #3625-IL-010/CF) (human); remark: listed apart in the source
[7] = molecular target: T1, human IL-33 (R&D Systems, #3625-IL-010/CF) (human); assay: SPR Biacore T200, 25 C
[8] = molecular target: T1, human IL-33 (R&D Systems, #3625-IL-010/CF) (human); assay: SPR Biacore T200, 37 C
[9] = molecular target: T2, biotinylated human IL-33 (human); assay: competitive ELISA, biotin-huIL-33 to coated hST2-Fc
[10] = molecular target: T1, human IL-33 (R&D Systems, #3625-IL-010/CF) (human); remark: listed apart in the source
[11] = molecular target: T1, human IL-33 (R&D Systems, #3625-IL-010/CF) (human); remark: listed apart in the source
[12] = molecular target: human ST2L on HEK-BLUE IL-33/IL-1beta cells (human) (UniProt Q01638)
Sequence of human ST2L on HEK-BLUE IL-33/IL-1beta cells (human) (Q01638 19-556 limits assumed): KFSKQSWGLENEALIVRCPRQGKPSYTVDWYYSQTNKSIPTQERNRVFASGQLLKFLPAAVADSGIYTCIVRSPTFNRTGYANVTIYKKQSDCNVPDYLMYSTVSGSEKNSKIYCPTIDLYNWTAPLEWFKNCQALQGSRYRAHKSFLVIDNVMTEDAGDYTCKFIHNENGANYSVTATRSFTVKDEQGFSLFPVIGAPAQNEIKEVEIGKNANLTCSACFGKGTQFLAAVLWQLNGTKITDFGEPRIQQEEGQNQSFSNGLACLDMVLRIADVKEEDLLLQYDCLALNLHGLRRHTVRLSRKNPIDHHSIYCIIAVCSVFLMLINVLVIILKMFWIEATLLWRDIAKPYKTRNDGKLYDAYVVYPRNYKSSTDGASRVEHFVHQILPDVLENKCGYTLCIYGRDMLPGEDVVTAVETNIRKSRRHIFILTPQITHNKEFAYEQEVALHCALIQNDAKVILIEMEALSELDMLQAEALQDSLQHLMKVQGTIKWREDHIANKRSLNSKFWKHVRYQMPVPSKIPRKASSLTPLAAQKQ

[13] = molecular target: human ST2L on HEK-BLUE IL-33/IL-1beta cells (human) (UniProt Q01638); remark: listed apart in the source

Row | IC50; SEAP reporter (OD 620), HEK-BLUE IL-33/IL-1beta cells, 10 pM hIL-33 [1] [M] | IC50; IFN-gamma ELISA, primary human NK cells, 260 pM hIL-33 + IL-12 [2] [M] | IC50, IL-33-induced phospho-p38 in primary human basophils, 500 pM hIL-33 [3] [M] | IC50 (read off the curve) [4] [nM] | Ph-p38 MFI at 0.4 nM Ab (500 pM human IL-33, primary basophils) [5] [MFI] | Ph-p38 MFI at 2 nM Ab (500 pM human IL-33, primary basophils) [6] [MFI] | Kd [7] [nM] | koff [7] [s⁻¹] | kon [7] [M⁻¹ s⁻¹] | t1/2 [7] [min] | Kd [8] [nM] | koff [8] [s⁻¹] | kon [8] [M⁻¹ s⁻¹] | t1/2 [8] [min] | IC50 [9] [nM] | Maximum Blocking [9] [%] | IC50 (read off the curve) [10] [nM] | IC50 (read off the curve) [11] [nM] | EC50 (SEAP reporter OD 620, HEK-BLUE IL-33/IL-1beta cells) [12] [nM] | EC50 (SEAP reporter OD 620, HEK-BLUE IL-33/IL-1beta cells) [13] [nM] | Binder
1 | 3.8e-11 | 2.4e-10 | 4.8e-13 | 0.0005 | 105 | 29 | 0.67 | 0.00039 | 581000 | 30 | 0.302 | 0.000413 | 1.37e+06 | 28 | 0.092 | 78 |  |  |  |  | H4H9660P (antibody, from another filing, IgG4, V domains shown) VH: EVQLVESGGGLVQPGGSLRLSCAASGITLSSYGMSWVRQAPGKGLEWVASIFGSGGGPYYADSVKGRFTMSRDNSKNTLYLQMNSLRAEDTAVYYCAKDRYSGSYYGGFDYWGRGTLVTVSS VL: DIQMTQSPSSVSASVGDRVTITCRASQGITSWLAWYQQKPGKAPTLLIYAASSLQTGVPSRFSGSGSGTDFTLTISSLQPEHFATYYCQQANSFPPTFGGGTKVEIK
2 | 8.2e-10 | 1.2e-09 | 9.1e-13 |  | 132 | 61 | 0.56 | 0.001 | 1.79e+06 | 12 | 0.457 | 0.00158 | 3.47e+06 | 7 | 0.97 | 73 | 0.0009 |  |  |  | H4H9676P (antibody, from another filing, IgG4, V domains shown) VH: EVQLVESGGGLVQPGGSLRLSCSASGFTFSSYAMNWVRQAPGKGLEWVTAISGSGGGTYYADSVKGRFTISRDNSKNSLFLQLNSLRAEDTAVYYCAKQTYTSSWYGGFDIWGQGTMVTVSS VL: DIQMTQSPSSVSASVGDRVTITCRASQGFSSWLAWYQQIPGKAPKLLIYAASRLQSGVPSRFRGSGSGTDFTLTISSLQPEDFATYYCQQANSFPLTFGGGTKVEIK
3 | 1e-09 |  | 2e-12 |  | 111 | 68 | 0.525 | 0.000328 | 626000 | 35 | 0.411 | 0.000497 | 1.21e+06 | 23 | 0.41 | 77 |  | 0.002 |  |  | H4H9667P (antibody, from another filing, IgG4, V domains shown) VH: EVQLVESGGGLVQPGGSLRLSCAASGFTFSTYSMHWVRQAPGKGLEYVSTINNNGDTTYYADSVKGRFTISRDNSKNTLYLQLGSLRPEDMAVYYCARQTYTSSWYGGFDSWGQGTLVTVSS VL: DIQMTQSPSSVSASVGDRVTITCRASQGITSWLAWYQQKPGKAPKLLIYAASNLQSGVPSRFSGSGSGTDFTLTITSLQPEDFATYYCQQANSLPFTFGPGTKVDIK
4 |  |  |  |  |  |  |  |  |  |  |  |  |  |  |  |  |  |  | 0.0087 | 0.021 | cynomolgus monkey N-terminal 6-His-tagged and C-terminal Avi-tagged IL-33 (S112-T270) (ligand) MHHHHHHGENLYFQGSITGISPITESLASLSTYNDQSITFALEDESYEIYVEDLKKDKKKDKVLLSYYESQHPSSESGDGVDGKMLMVTLSPTKDFWLQANNKEHSVELHKCEKPLPDQAFFVLHNRSFNCVSFECKTDPGVFIGVKDNHLALIKVDYSENLGSENILFKLSETGNSGGGLNDIFEAQKIEWHE
